Test results as given in paper PMC8391104, “Molecular mechanism of Mad1 kinetochore targeting by phosphorylated Bub1” (EMBO Reports, 2021).

Experiments:
Mad1 CTD, 597-718 = Mad1 CTD, 597-718 (UniProt Q9Y6D9); assay: 1H,15N HSQC titration of 15N-Mad1CTD; conditions: reference: non-phosphorylated peptide; sites S459,T461
[1] = biological target: Mad1 C-terminal domain (Mad1^CTD) homodimer, residues 597-718 (human) (UniProt Q9Y6D9); assay: ITC; Bub1^CD1 peptide (0.3-1.5 mM) titrated into Mad1 (30-100 µM) in the cell; 20°C; 20 mM HEPES pH 7.5, 100 mM NaCl, 1 mM TCEP; single-site model; stoichiometry counted on dimeric Mad1^CTD
Sequence of Mad1 C-terminal domain (Mad1^CTD) homodimer, residues 597-718 (human) (Q9Y6D9 597-718): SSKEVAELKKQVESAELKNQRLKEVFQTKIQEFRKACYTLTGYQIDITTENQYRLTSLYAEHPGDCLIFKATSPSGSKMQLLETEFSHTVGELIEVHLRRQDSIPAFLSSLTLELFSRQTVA

[2] = biological target: Mad1 C-terminal domain (Mad1^CTD) homodimer, residues 597-718 (human) (UniProt Q9Y6D9); assay: NMR titration; 1H,15N 2D HSQC of 15N-labelled Mad1^CTD with unlabelled peptide added (dimer to peptide 1:0.5 to 1:4); 50 mM HEPES pH 7.0, 100 mM NaCl, 2 mM TCEP, 0.02% NaN3, 298 K
[3] = biological target: Mad1 C-terminal domain (Mad1^CTD) homodimer, residues 597-718 (human) (UniProt Q9Y6D9); assay: crystal structure; co-crystallisation of Mad1^CTD (0.35 mM) with Bub1^CD1 peptide at 2.5 mM in 5% DMSO (or 5 mM in 10% DMSO); 10% isopropanol, 0.1 M Na HEPES pH 7.5, 20% PEG 4000; 21°C
[4] = biological target: Mad1 C-terminal domain (Mad1^CTD) homodimer, residues 597-718 (human) (UniProt Q9Y6D9); assay: NMR titration; 31P 1D spectra of phosphorylated Bub1^CD1 peptide with Mad1^CTD dimer at 1:1 and 1:2 dimer to peptide, around 0.25 to 0.5 mM of each; 50 mM HEPES pH 7.0, 100 mM NaCl, 2 mM TCEP, 0.02% NaN3, 298 K

Row | binding against the reference (Mad1 CTD, 597-718) | Kd [1] | stoichiometry N (peptide per Mad1^CTD dimer) [2] | stoichiometry N (peptides per Mad1^CTD homodimer) [3] | stoichiometry N (peptide per Mad1 dimer) [1] | stoichiometry N (peptide per Mad1^CTD dimer) [4] | Substance
1 | gained | – | – | – | – | – | Bub1 CD1, 455-479 (from UniProt O43683) phosphorylated peptide
2 | – | 3.3 µM | – | – | – | – | singly phosphorylated Bub1^CD1 peptide (pThr461)
3 | – | 2.7 µM | 1 | 2 | 1 | 1 | doubly phosphorylated Bub1^CD1 peptide (pSer459-pThr461)
